Target: human GLP-1 receptor (human) (UniProt P43220)
Experiment: cell-based or functional assay

human GLP-1 receptor (human), sequence (P43220 24-463 limits assumed): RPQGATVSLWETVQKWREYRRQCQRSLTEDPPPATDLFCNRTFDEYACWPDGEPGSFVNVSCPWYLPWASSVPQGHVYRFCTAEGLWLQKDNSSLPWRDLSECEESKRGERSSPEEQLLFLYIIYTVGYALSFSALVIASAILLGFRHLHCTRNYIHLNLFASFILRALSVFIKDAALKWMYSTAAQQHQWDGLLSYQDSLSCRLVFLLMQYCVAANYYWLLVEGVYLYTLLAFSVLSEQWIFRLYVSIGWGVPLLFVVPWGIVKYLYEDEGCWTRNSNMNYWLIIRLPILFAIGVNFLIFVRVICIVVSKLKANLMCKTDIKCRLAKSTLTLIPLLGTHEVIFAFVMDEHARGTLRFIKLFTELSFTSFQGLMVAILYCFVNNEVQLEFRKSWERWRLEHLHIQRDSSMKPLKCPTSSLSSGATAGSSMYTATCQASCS

| Substance | EC50 (DiscoveRx GLP1R cAMP Hunter assay) [nM] | fold decrease of biological activity against free exenatide [fold] |
| --- | --- | --- |
| Stably-linked N-[6-azidohexyloxy]-exenatide conjugate of Example 5 (non-releasable control conjugate, R1 = absent, conjugated to DBCO-Lys(DEAC)-[GL4-400] 40 kDa four-branched PEG) (peptide) | > 100 | > 10000 |
| Exenatide (exendin-4) (peptide) | 0.066 |  |

Source: patent publication US20140256626A1, “PEG CONJUGATES OF EXENATIDE” (priority 2011, published 2014)
